Data published in the supplement of paper PMC9233669.
Fewer inactive variants are shown than the library holds.

Assays:
biotinyl-Met-oxazolone = experiment: self-aminoacylation, catalytic enhancement (BMO) (fold over background); higher = more active; k-Seq, kA / k0A0; sequences stand for … in GGGAAUGGAUCCACAUCUACGAAUUC…UUCACUGCAGACUUGACGAAGCUG
In short: (§1)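 Mutagenized RNA pools with a 21-nt variable region (0.43 μM) were reacted with each biotinyl-aminoacyl-oxazolone at 2–1250 μM for 90 minutes at room temperature, in 50 μL HEPES/NaCl/KCl/MgCl2/CaCl2 buffer containing 5% acetonitrile at pH 6.9–7.0. RNA captured on streptavidin was quantified by triplicate qPCR and by Illumina sequencing. The fraction reacted for each sequence was fit to a pseudo-first-order model with bootstrapping, and catalytic enhancement is the median kA divided by the uncatalyzed rate, taken as the low-activity peak of a bimodal Gaussian fit.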

biotinyl-Ile-oxazolone = experiment: self-aminoacylation, catalytic enhancement (BIO) (fold over background); higher = more active; k-Seq, kA / k0A0; sequences stand for … in GGGAAUGGAUCCACAUCUACGAAUUC…UUCACUGCAGACUUGACGAAGCUG
In short: as §1

biotinyl-Trp-oxazolone = experiment: self-aminoacylation, catalytic enhancement (BWO) (fold over background); higher = more active; k-Seq, kA / k0A0; sequences stand for … in GGGAAUGGAUCCACAUCUACGAAUUC…UUCACUGCAGACUUGACGAAGCUG
In short: as §1

biotinyl-Val-oxazolone = experiment: self-aminoacylation, catalytic enhancement (BVO) (fold over background); higher = more active; k-Seq, kA / k0A0; sequences stand for … in GGGAAUGGAUCCACAUCUACGAAUUC…UUCACUGCAGACUUGACGAAGCUG
In short: as §1

biotinyl-Phe-oxazolone = experiment: self-aminoacylation, catalytic enhancement (BFO) (fold over background); higher = more active; k-Seq, kA / k0A0; sequences stand for … in GGGAAUGGAUCCACAUCUACGAAUUC…UUCACUGCAGACUUGACGAAGCUG
In short: as §1

biotinyl-Leu-oxazolone = experiment: self-aminoacylation, catalytic enhancement (BLO) (fold over background); higher = more active; k-Seq, kA / k0A0; sequences stand for … in GGGAAUGGAUCCACAUCUACGAAUUC…UUCACUGCAGACUUGACGAAGCUG
In short: as §1

Row | Sequence | self-aminoacylation (biotinyl-Met-oxazolone) | self-aminoacylation (biotinyl-Ile-oxazolone) | self-aminoacylation (biotinyl-Trp-oxazolone) | self-aminoacylation (biotinyl-Val-oxazolone) | self-aminoacylation (biotinyl-Phe-oxazolone) | self-aminoacylation (biotinyl-Leu-oxazolone)
1 | AUUCCCCUGGUCAUCGAGUGA [Fam2.1 aminoacylation ribozyme variant] | 6.93 | 4 | 8.4 | 4.37 | 45.7 | 6.99
2 | AUUCCCCUGGUCAUCGAUUGA [Fam2.1 aminoacylation ribozyme variant] | 1.55 | 1.59 | 2.47 | 1.79 | 1.13 | 1.73
3 | AUUCCCCUGGUCAUUGAGUGA [Fam2.1 aminoacylation ribozyme variant] | 8.79 | 4.73 | 11.7 | 4.5 | 64.3 | 8.32
4 | AUUCCCCUGGUUAUCGAGUGA [Fam2.1 aminoacylation ribozyme variant] | 10.2 | 5.07 | 14.5 | 5.49 | 82.2 | 9.8
5 | AUUCCCCUUGUCAUCGAGUGA [Fam2.1 aminoacylation ribozyme variant] | 11.1 | 6.44 | 14.9 | 7.45 | 70.6 | 11.4
6 | AUUCCCUUAGGUCAUCGGGUG [Fam2.2 aminoacylation ribozyme variant] | 33.4 | 19.3 | 30.7 | 20.2 | 295 | 44.3
7 | AUUCCGCUGGUCAUCGAGUGA [Fam2.1 aminoacylation ribozyme variant] | 6.08 | 3.34 | 8.05 | 3.7 | 45.4 | 6.79
8 | AUUCGCAUAGGUCAUCGGGUG [Fam2.2 aminoacylation ribozyme variant] | 9.49 | 5.95 | 9.43 | 7.08 | 66 | 12.2
9 | AUUCGCCCAGGUCAUCGGGUG [Fam2.2 aminoacylation ribozyme variant] | 4.75 | 4.14 | 5.2 | 3.96 | 42 | 6.46
10 | AUUCGCCUACGUCAUCGGGUG [Fam2.2 aminoacylation ribozyme variant] | 5.54 | 3.15 | 4.12 | 3.86 | 44.1 | 7.11
11 | AUUCGCCUAGCUCAUCGGGUG [Fam2.2 aminoacylation ribozyme variant] | 2.28 | 2.6 | 2.87 | 2.59 | 12.7 | 2.99
12 | AUUCGCCUAGGUCAUCAGGUG [Fam2.2 aminoacylation ribozyme variant] | 1.97 | 1.48 | 2.53 | 1.53 | 7.29 | 2.02
13 | AUUCGCCUAGGUCAUCGAGUG [Fam2.2 aminoacylation ribozyme variant] | 11.7 | 8.77 | 7.17 | 7.39 | 29.3 | 15.9
14 | AUUCGCCUAGGUCAUCGGGUA [Fam2.2 aminoacylation ribozyme variant] | 46.9 | 25.1 | 35.3 | 23.4 | 391 | 68.8
15 | AUUCGCCUAGGUCAUCGUGUG [Fam2.2 aminoacylation ribozyme variant] | 1.45 | 1.04 | 0.823 | 1.05 | 3.31 | 1.35
16 | AUUCGCCUAGGUCAUCUGGUG [Fam2.2 aminoacylation ribozyme variant] | 2.96 | 2.24 | 3.3 | 2.23 | 19.3 | 3.87
17 | AUUCGCCUAGGUCAUGGGGUG [Fam2.2 aminoacylation ribozyme variant] | 5.41 | 3.88 | 5.56 | 4.43 | 31.7 | 6.48
18 | AUUCGCCUAGGUCCUCGGGUG [Fam2.2 aminoacylation ribozyme variant] | 6.35 | 4.84 | 6.48 | 4.56 | 46.8 | 8.24
19 | AUUCUCCCAGGUCAUCGGGUG [Fam2.2 aminoacylation ribozyme variant] | 10.2 | 6.87 | 9.06 | 6.91 | 90 | 12.8
20 | AUUCUCCUAGCUCAUCGGGUG [Fam2.2 aminoacylation ribozyme variant] | 3.24 | 3.32 | 4.24 | 3.75 | 23.2 | 3.79
21 | AUUCUCCUAGGUCAUCGAGUG [Fam2.2 aminoacylation ribozyme variant] | 5.07 | 3.62 | 3.73 | 3.77 | 6.65 | 6.3
22 | AUUCUCCUAGGUCAUCGGGUA [Fam2.2 aminoacylation ribozyme variant] | 7.07 | 4.71 | 7.31 | 4.84 | 29.6 | 8.96
23 | AUUCUCCUGGUCAUCGAGUGA [Fam2.1 aminoacylation ribozyme variant] | 6.14 | 3.67 | 7.91 | 3.89 | 33.7 | 6.5
24 | AUUCUCUUAGGUCAUCGGGUG [Fam2.2 aminoacylation ribozyme variant] | 9.08 | 5.7 | 9.36 | 5.53 | 77.6 | 12.5
25 | AUUCUUCUAGGUCAUCGGGUG [Fam2.2 aminoacylation ribozyme variant] | 7.87 | 4.52 | 6.98 | 5.28 | 50.3 | 9.07
26 | AUUGACCUACGUCAUCGGGUG [Fam2.2 aminoacylation ribozyme variant] | 4.72 | 3.13 | 5.9 | 3.81 | 40.6 | 6.43

Row | Sequence | self-aminoacylation (biotinyl-Met-oxazolone) | self-aminoacylation (biotinyl-Ile-oxazolone) | self-aminoacylation (biotinyl-Trp-oxazolone) | self-aminoacylation (biotinyl-Val-oxazolone) | self-aminoacylation (biotinyl-Phe-oxazolone) | self-aminoacylation (biotinyl-Leu-oxazolone)
27 | AUUGACCUAGGGCAUCGGGUG [Fam2.2 aminoacylation ribozyme variant] | 3.13 | 3.23 | 4.66 | 3.28 | 17 | 3.63
28 | AUUGACCUAGGUCACCGGGUG [Fam2.2 aminoacylation ribozyme variant] | 4.69 | 4.43 | 6.05 | 4.87 | 29.6 | 6.34
29 | AUUGACCUAGGUCAUCGGGGG [Fam2.2 aminoacylation ribozyme variant] | 3.21 | 3.41 | 3.93 | 3.04 | 12.8 | 4.57
30 | AUUGACCUAGGUCAUCGGGUU [Fam2.2 aminoacylation ribozyme variant] | 13.9 | 7.25 | 12.2 | 6.49 | 98.6 | 18.8
31 | AUUGACCUAGGUCUUCGGGUG [Fam2.2 aminoacylation ribozyme variant] | 4.29 | 3.85 | 4.79 | 3.97 | 19 | 4.19
32 | AUUGACCUAGUUCAUCGGGUG [Fam2.2 aminoacylation ribozyme variant] | 3.19 | 2.62 | 4.08 | 2.59 | 18.6 | 3.62
33 | AUUGACCUGGGUCAUCGGGUG [Fam2.2 aminoacylation ribozyme variant] | 25.9 | 12.2 | 24.1 | 13.5 | 107 | 29.6
34 | AUUGACCUGGUCAUCGAGUGA [Fam2.1 aminoacylation ribozyme variant] | 6.92 | 3.66 | 9.68 | 4.1 | 8.3 | 7.86
35 | AUUGCCCUGGACAUCGAGUGA [Fam2.1 aminoacylation ribozyme variant] | 5.71 | 2.41 | 5.92 | 3.11 | 24.8 | 5.58
36 | AUUGCCCUGGUCAACGAGUGA [Fam2.1 aminoacylation ribozyme variant] | 6.85 | 3.3 | 7.12 | 3.53 | 49.1 | 6.71
37 | AUUGCCCUGGUCAUCGAGGGA [Fam2.1 aminoacylation ribozyme variant] | 3.9 | 1.93 | 3.16 | 2.22 | 4.65 | 3.97
38 | AUUGCCCUGUUCAUCGAGUGA [Fam2.1 aminoacylation ribozyme variant] | 5.44 | 3 | 7.43 | 4.12 | 25.2 | 5.81
39 | AUUGCCCUUGUCAUCGAGUGA [Fam2.1 aminoacylation ribozyme variant] | 7.03 | 3.38 | 8.3 | 3.88 | 42.1 | 7.02
40 | AUUGUCCUAGGUCAUCGGGUG [Fam2.2 aminoacylation ribozyme variant] | 30.2 | 14.2 | 27.1 | 13.6 | 200 | 39.1
41 | AUUUACCAAGGUCAUCGGGUG [Fam2.2 aminoacylation ribozyme variant] | 7.36 | 4.61 | 7.11 | 4.6 | 77.2 | 9.69
42 | AUUUACCCAGGUCAUCGGGUG [Fam2.2 aminoacylation ribozyme variant] | 5.07 | 3.28 | 3.66 | 3.55 | 44.3 | 6.46
43 | AUUUACCUAGCUCAUCGGGUG [Fam2.2 aminoacylation ribozyme variant] | 2.16 | 2.01 | 2.04 | 2.4 | 8.53 | 2.58
44 | AUUUACCUAGGCCAUCGGGUG [Fam2.2 aminoacylation ribozyme variant] | 3.07 | 2.47 | 3.98 | 3.2 | 17.4 | 3.95
45 | AUUUACCUAGGUCAGCGGGUG [Fam2.2 aminoacylation ribozyme variant] | 4.01 | 2.49 | 3.98 | 3.16 | 24.5 | 4.23
46 | AUUUACCUAGGUCAUAGGGUG [Fam2.2 aminoacylation ribozyme variant] | 1.58 | 1.37 | 1.97 | 1.48 | 1.34 | 1.87
47 | AUUUACCUAGGUCAUCCGGUG [Fam2.2 aminoacylation ribozyme variant] | 4.7 | 3.68 | 4.6 | 3.81 | 41.8 | 7.4
48 | AUUUACCUAGGUCAUCGCGUG [Fam2.2 aminoacylation ribozyme variant] | 9.66 | 5.32 | 9.58 | 5.84 | 82.1 | 13.6
49 | AUUUACCUAUGUCAUCGGGUG [Fam2.2 aminoacylation ribozyme variant] | 4.35 | 3.04 | 4.76 | 2.96 | 28 | 6.5
50 | AUUUACGUAGGUCAUCGGGUG [Fam2.2 aminoacylation ribozyme variant] | 3.99 | 2.88 | 3.64 | 3.38 | 25.2 | 3.68
51 | AUUUCCCAGGUCAUCGAGUGA [Fam2.1 aminoacylation ribozyme variant] | 5.06 | 2.89 | 6.32 | 3.4 | 26.3 | 5.63
